In assay [1] the target is T1, full-length human U1A protein (human, UniProt P09012 1-282). Nature of the assay: ITC. Background: ITC needs no label: the signal is the heat of the interaction.
Assay [2] concerns the target T1, full-length human U1A protein. Nature of the assay: ITC. The source holds these as a separate data set.
Assay [3] addresses T2, full-length human U2B″ protein (human, UniProt P08579 1-225). Nature of the assay: ITC.
For assay [4], the target named is T2, full-length human U2B″ protein. The assay is described as follows: ITC. This is another data set of the same source.
Assay [5] shares this target. The assay is described as follows: other fluorescence titration.
Assay [6] concerns the target T1, full-length human U1A protein. Nature of the assay: other fluorescence titration.
The target of assay [7] is T2, full-length human U2B″ protein. The assay is described as follows: other fluorescence titration. This is another data set of the same source.

This passage reports Kd results from article PMC4067145 (Biochemistry, 2014).

T2 sequence (P08579 whole entry): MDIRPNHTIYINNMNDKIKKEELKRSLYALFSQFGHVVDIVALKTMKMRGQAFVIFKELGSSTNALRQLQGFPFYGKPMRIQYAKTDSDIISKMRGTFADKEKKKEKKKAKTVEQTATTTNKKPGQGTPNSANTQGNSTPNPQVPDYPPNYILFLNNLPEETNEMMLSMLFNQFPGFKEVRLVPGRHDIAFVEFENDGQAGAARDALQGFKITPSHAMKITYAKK

B1: human U2A′ protein, truncated form that included the first 180 amino acids (LRR domain) (domain or fragment)
chain: MVKLTAELIEQAAQYTNAVRDRELDLRGYKIPVIENLGATLDQFDAIDFSDNEIRKLDGFPLLRRLKTLLVNNNRICRIGEGLDQALPCLTELILTNNSLVELGDLDPLASLKSLTYLSILRNPVTNKKHYRLYVIYKVPQVRVLDFQKVKLKERQEAEKMFKGKRGAQLAKDIARRSKT
On to B1, for which the Kd (in general, the equilibrium constant for the complex coming apart) in assay [1] is 1000 nM; in assay [2] it was 830 nM; in assay [3] it was 5.9 nM; in assay [4] it was 6 nM; in assay [5], 5.1 nM; in assay [6], 1400 nM. The molecule also returned a Kd in assay [7] of 4.4 nM.
